In US20200062832A1 (QUIDEL, published 2020):

T1: recombinant DbpA full length protein (without signal sequence), Borrelia burgdorferi decorin-binding protein A (Borrelia burgdorferi, UniProt O50917 30-191)
T1 construct: also called DpbA; DbpA antigen
T1 sequence: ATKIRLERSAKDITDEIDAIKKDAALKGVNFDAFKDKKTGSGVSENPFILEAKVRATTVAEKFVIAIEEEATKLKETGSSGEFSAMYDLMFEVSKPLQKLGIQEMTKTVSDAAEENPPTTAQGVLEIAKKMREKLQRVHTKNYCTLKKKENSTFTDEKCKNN

B1: MAb 6G8 (mouse hybridoma monoclonal antibody) (antibody)
heavy: QVQLQQPGAELVKPGASVKLSCKASGYTFTRYWMYWVKQRPGRGLEWIGRLDPNSGVTKYNEKFKSKATLTVDKSSSTAYMQLSSLTSEDSAVYYCVRDDSWYFDVWGTGTTVTVSSAKTTPPSVYPLAPGSAAQTNSMVTLGCLVKGYFPEPVTVTWNSGSLSSGVHTFPAVLQSDLYTLSSSVTVPSSTWPSQTVTCNVAHPASSTKVDKKIVPRDCGCKPCICTVPEVSSVFIFPPKPKDVLTITLTPKVTCVVVDISKDDPEVQFSWFVDDVEVHTAQTKPREEQINSTFRSVSELPIMHQDWLNGKEFKCRVNSAAFPAPIEKTISKTKGRPKAPQVYTIPPPKEQMAKDKVSLTCMITNFFPEDITVEWQWNGQPAENYKNTQPIMDTDGSYFVYSKLNVQKSNWEAGNTFTCSVLHEGLHNHHTEKSLSLSPGK
light: EIQMTQSPSSMSASLGDRITITCQATQDIVKNLNWYQQKPGKPPSFLIYYATELAEGVPSRFSGSGSGSDYSLTINNLESQDFADYFCLQFYAFPLTFGAGTKLELRRADAAPTVSIFPPSSEQLTSGGASVVCFLNNFYPRDINVKWKIDGSERQNGVLNSWTDQDSKDSTYSMSSTLTLTKDEYERHNSYTCEATHKTSTSPIVKSFNRGEC
notes: Mouse IgG1 kappa, tested as hybridoma culture supernatant; copies: 2 + 2
B2: 6G8 chimeric IgM (antibody)
heavy: QVQLQQPGAELVKPGASVKLSCKASGYTFTRYWMYWVKQRPGRGLEWIGRLDPNSGVTKYNEKFKSKATLTVDKSSSTAYMQLSSLTSEDSAVYYCVRDDSWYFDVWGTGTTVTVSSAKTTPPSVYPLAPGSAAQTNSMVTLGCLVKGYFPEPVTVTWNSGSLSSGVHTFPAVLQSDLYTLSSSVTVPSSTWPSQTVTCNVAHPASSTKVDKKILPVIAELPPKVSVFVPPRDGFFGNPRKSKLICQATGFSPRQIQVSWLREGKQVGSGVTTDQVQAEAKESGPTTYKVTSTLTIKESDWLSQSMFTCRVDHRGLTFQQNASSMCVPDQDTAIRVFAIPPSFASIFLTKSTKLTCLVTDLTTYDSVTISWTRQNGEAVKTHTNISESHPNATFSAVGEASICEDDWNSGERFTCTVTHTDLPSPLKQTISRPKGVALHRPDVYLLPPAREQLNLRESATITCLVTGFSPADVFVQWMQRGQPLSPEKYVTSAPMPEPQAPGRYFAHSILTVSEEEWNTGETYTCVVAHEALPNRVTERTVDKSTGKPTLYNVSLVMSDTAGTCY
light: EIQMTQSPSSMSASLGDRITITCQATQDIVKNLNWYQQKPGKPPSFLIYYATELAEGVPSRFSGSGSGSDYSLTINNLESQDFADYFCLQFYAFPLTFGAGTKLELRRADAAPTVSIFPPSSEQLTSGGASVVCFLNNFYPRDINVKWKIDGSERQNGVLNSWTDQDSKDSTYSMSSTLTLTKDEYERHNSYTCEATHKTSTSPIVKSFNRGEC
notes: Heavy chain is mouse VH-CH1 plus human IgM mu chain CH2-4; also called 6G8 chimera; 6G8 (26394.1.a)
B3: MAb 8C10 (mouse hybridoma monoclonal antibody) (antibody)
heavy: QVQLQQSGAELMKPGASVKLSCKAAGYTFTDYWIEWVKQRPGHGLEWIGEILPGSGSTKDNERFKGKATFTADTSSNTAYMQLSSLTTEDSAIYYCARREWGYYFDYWGQGTTLTVSSAKTTPPSVYPLAPGSAAQTNSMVTLGCLVKGYFPEPVTVTWNSGSLSSGVHTFPAVLQSDLYTLSSSVTVPSSTWPSQTVTCNVAHPASSTKVDKKIVPRDCGCKPCICTVPEVSSVFIFPPKPKDVLTITLTPKVTCVVVDISKDDPEVQFSWFVDDVEVHTAQTKPREEQINSTFRSVSELPIMHQDWLNGKEFKCRVNSAAFPAPIEKTISKTKGRPKAPQVYTIPPPKEQMAKDKVSLTCMITNFFPEDITVEWQWNGQPAENYKNTQPIMDTDGSYFVYSKLNVQKSNWEAGNTFTCSVLHEGLHNHHTEKSLSLSPGK
light: DIVMTQSHKFMSTSVGDRVSITCKASQDVSTAVAWYQQKPGQSPKLLIYWASTRHTGVPDRFTGSGSGTDYTLTISSVQAEDLALYYCQQHYSTPYTFGGGTKLEIKRADAAPTVSIFPPSSEQLTSGGASVVCFLNNFYPRDINVKWKIDGSERQNGVLNSWTDQDSKDSTYSMSSTLTLTKDEYERHNSYTCEATHKTSTSPIVKSFNRGEC
notes: Mouse IgG (gamma/kappa), tested as hybridoma culture supernatant; Signal peptides are positions 1-19 (heavy) and 1-20 (light); copies: 2 + 2

Key:
[1] = biological target: T1, recombinant DbpA full length protein …; assay: Octet BLI, mAb on anti-mIgG Fc sensor, DbpA 100 nM
[2] = biological target: T1, recombinant DbpA full length protein …; assay: Octet BLI, DbpA 100 nM (summary table)
[3] = biological target: T1, recombinant DbpA full length protein …; assay: Biacore SPR (summary table)
[4] = biological target: T1, recombinant DbpA full length protein …; assay: Biacore SPR, supernatant over DbpA chip
[5] = biological target: T1, recombinant DbpA full length protein …; assay: Biacore SPR, DbpA on CM5 chip

Binder | Kd [1] [pM] | koff [1] [s⁻¹] | kon [1] [M⁻¹ s⁻¹] | Kd [2] [pM] | koff [2] [s⁻¹] | kon [2] [M⁻¹ s⁻¹] | Kd [3] [pM] | Kd [4] [pM] | koff [4] [s⁻¹] | kon [4] [M⁻¹ s⁻¹] | Kd [5] [pM] | koff [5] [s⁻¹] | kon [5] [M⁻¹ s⁻¹]
B1 | 976 | 0.000977 | 1e+06 | 976 | 0.000977 | 1e+06 | 0.25 | 0.25 | 5e-08 | 200000 | – | – | –
B2 | – | – | – | – | – | – | – | – | – | – | 1.96 | 2.45e-05 | 1.25e+07
B3 | < 1 | < 1e-07 | 356000 | < 1 | < 1e-07 | 356000 | 1.2 | 1.2 | 1.3e-07 | 100000 | – | – | –
